Measurements published in PMC7407982, “Troponin Aptamer on an Atomically Flat Au Nanoplate Platform for Detection of Cardiac Troponin I”.

Columns and labels:
[1] = target: troponin complex (UniProt P19429+P63316+P45379); conditions: 3'-(CH2)6-SH thiol; SERS sandwich: 300 mM NaCl, 20 mM Tris-HCl, 0.5 mM beta-mercaptoethanol, 20% (w/v) glycerol, 0.05% Tween 20, pH 8.0 (or with 20% human serum), 35 °C, 6 h, then …; cited from earlier work
[2] = target: cardiac troponin I (cTnI) (UniProt P19429 2-210); assay: SERS sandwich on Au nanoplate; AFM; sandwich with reporter N2; detected from 100 aM in buffer, 100 fM in 20% human serum; AFM capture at 10 pM; SERS sandwich: 300 mM NaCl, 20 mM Tris-HCl, 0.5 mM beta-mercaptoethanol, 20% (w/v) glycerol, 0.05% Tween 20, pH 8.0 (or with 20% human serum), 35 °C, 6 h, then

Molecule	Kd [1]	binding result [2]
CGCATGCCAAACGTTGCCTCATAGTTCCCTCCCCGTGTCC [Probe aptamer]	3.37 nM	–
CGTGCAGTACGCCAACCTTTCTCATGCGCTGCCCCTCTTA [Reporter aptamer]	3.1 nM	–
CGCATGCCAAACGTTGCCTCATAGTTCCCTCCCCGTGTCC (ssDNA, 3'-(CH2)6-SH thiol) [Probe aptamer]	–	binds
